Experimental data published in PMC3136132.

Assays:
FMRP [1] = target: T1, FMRP (UniProt Q06787 1-632); assay: biotin-RNA affinity capture; 2 uM RNA; 50 mM Tris-HCl pH 7.4, 2 mM MgCl2, 150 mM KCl, 1 mM EDTA, 1 mM DTT (Schaeffer buffer without tRNA, supplemented with 125 mM NaCl); SoftLink avidin resin; temper
FMRP [2] = target: T1, FMRP; assay: biotin-RNA affinity capture; 2 uM RNA; slightly less than full-length BC1, P=.15; 50 mM Tris-HCl pH 7.4, 2 mM MgCl2, 150 mM KCl, 1 mM EDTA, 1 mM DTT (Schaeffer buffer without tRNA, supplemented with 125 mM NaCl); SoftLink avidin resin; temper

B1: 3'BC1-60 RNA, annealed (structured_RNA)
RNA: AAAAAAGACAAAAUAACAAAAAGACCAAAAAAAAAACAAGGUAACUGGCACACACAACCUUU
binding result (FMRP [1]): no binding

B2: 5'BC1-75 RNA, annealed (structured_RNA)
RNA: GGGGUUGGGGAUUUAGCUCAGUGGUAGAGCGCUUGCCUAGCAAGCGCAAGGCCCUGGGUUCGGUCCUCAGCUCU
binding result (FMRP [2]): binds
